From the supplement of paper PMC11780869 come the findings set out here.

The subject of this data set is Bacillus subtilis. In words: cleaved RNA product abundance (RNA/gDNA barcode ratio) relative to median wild-type variant (ratio to wild type); higher = more accumulation of the downstream cleavage product. The gist of the method: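 Cleaved product abundance was measured with barcoded reporter mRNAs (truncated aprE or tetM) carrying mutagenized RNase Y cleavage-site windows in the B. subtilis chromosome. Cultures in LB at 37°C grew from OD600 0.0003 to 0.3. Gel-selected cleaved RNA was reverse transcribed and barcode-sequenced with genomic DNA barcodes, and the RNA:gDNA barcode ratio per construct was scaled to the median construct bearing the unmutated site.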

Where [1] appears, read: experiment (reporter, strain, medium): exp 2b: truncated aprE reporter, strain BJT200, cleavage site: cggR-gapA (positions -7 to +36 mutated).
The mark [2] stands for this setting: experiment (reporter, strain, medium): exp 4a: truncated aprE reporter, strain BJT201 with 2% xylose (RNase J1 expressed), cleavage site: cggR-gapA (positions -7 to +36 mutated).
Setting [3] is: experiment (reporter, strain, medium): exp 8a: truncated aprE reporter, strain BJT201 with 2% xylose (RNase J1 expressed), cleavage site: glnRA (positions -5 to +31 mutated).
Where [4] appears, read: experiment (reporter, strain, medium): exp 6: tetM reporter, strain 168, cleavage site: cggR-gapA (positions -7 to +36 mutated).

“ACAGACGAAGGAGCCGCAAAGAAGTTATTAAGGGATGAATAATTCCTCAACATAAATATCTCTCACTTATTTAAA”: the “cleaved RNA product abundance” value reads like this: under setting [1], 0.134; under setting [2], 0.183.
Turning to “ACAGACGAAGGAGCCGCAAAGAAGATATTAAGGGATGATTAATCCCTCAATATAAATATCTCTCACTTATTTAAA”, the “cleaved RNA product abundance” value under setting [2] is 0.803.
Take “CGACATGTCCCGCTTCTTTCATTAATCCGTTAGCAATTGTTTTGCTATATAAATTTACCTTTTAAGAGGAGGAAT”: under setting [3], the “cleaved RNA product abundance” value turned out to be 1.01.
“ACAGACGAAGGAGCCGCAAAGTAGTTATTAAGGGATGAATAATCCCTCAATATACATATCTCTCACTTATTTAAA”: under setting [2], the “cleaved RNA product abundance” value came to 0.664.
Same read-out and setting: as for “ACAGACGAAGGAGCCGCAAAGAAGATATTAAGGGATGAATTATCCCTCAATATAAATATCTCTCACTTATTTAAA”, the figure is 0.572.
“ACAGACGAAGGAGCCGCAAAGAAGTTATTAAGGGATGAATAATCCCTCAATCTAAATATCTCTCACTTATTTAAA”: the “cleaved RNA product abundance” value by setting is: under setting [1], 0.126; under setting [2], 0.138; under setting [4], 0.193.
With “ACAGACGAAGGAGCCGCAAAGAACTTATTAAGGGATAAATAATCCCTCAATATAAATATCTCTCACTTATTTAAA”, the “cleaved RNA product abundance” value by setting is: under setting [1], 0.556; under setting [2], 0.477.
Turning to “CGACATGTCCCGCTTCTTTCATTAATCCGTAAGCAACTGTTTTGCTAAATACATTTACCTTTTAAGAGGAGGAAT”, under setting [3], the “cleaved RNA product abundance” value is 0.36.
For “ACAGACGAAGGAGCCGCAAAGAAGTTATTAAGGAATGAATAATCCCTCAATATCAATATCTCTCACTTATTTAAA”, the “cleaved RNA product abundance” value under setting [2] amounted to 0.0389.
Consider “ACAGACGAAGGAGCCGCAAAGAAGTTATTAAGGAATGAATAATCCCTCAATATAAACATCTCTCACTTATTTAAA”, for which the “cleaved RNA product abundance” value under setting [2] turned out to be 0.121.
Turning to “ACAGACGAAGGAGCCGCAAAGATGTTATTAAGGGATGAAAAATCCCTCAATATAAATATCTCTCACTTATTTAAA”, the “cleaved RNA product abundance” value came to 0.583 under setting [1] and 0.733 under setting [2].
Consider “CGACATGTCCCGCTTCTTTCATTAATCCGTTAGCAACTGTTTTGCTAGATACATTTACATTTTAAGAGGAGGAAT”, for which the “cleaved RNA product abundance” value under setting [3] was found to be 0.424.
On the same count and under the same terms, then “CGACATGTCCCGCTTCTTTCATTAATCCGTTAGTAACTGTTTAGCTATATACATTTACCTTTTAAGAGGAGGAAT”, with 0.463.
On to “ACAGACGAAGGAGCCGCAAAGAAGATAGTAAGGGATGAATAATCCCTCAATATAAATATCTCTCACTTATTTAAA”, for which, under setting [2], the “cleaved RNA product abundance” value was determined as 0.265.
As for “CGACATGTCCCGCTTCTTTCATTAATCCGTTAGCAACTGTTTTGCTATATACATTTCCTTTTTAAGAGGAGGAAT”, under setting [3], the “cleaved RNA product abundance” value amounted to 0.345.
On the same count and under the same terms, then “CGACATGTCCCGCTTCTTTCATTAATCCGTTAGCAACTGTTTTGCTATTTACATTTAACTTTTAAGAGGAGGAAT”, with 0.208.
For “CGACATGTCCCGCTTCTTTCATTAATCCATTAGCAACTGTTTTGCTATATACATTTACTTTTTAAGAGGAGGAAT”, under setting [3], the “cleaved RNA product abundance” value is 0.808.
On to “ACAGACGAAGGAGCCGCAAAGAAGTTATTAAGGGATGTATAATCCCTCATTATAAATATCTCTCACTTATTTAAA”, for which the “cleaved RNA product abundance” value under setting [2] is 0.387.
Take “ACAGACGAAGGAGCCGCAAAGAAGTTATTAAGTGATGAATCATCCCTCAATATAAATATCTCTCACTTATTTAAA”: the “cleaved RNA product abundance” value under setting [1] was determined as 0.125 and the “cleaved RNA product abundance” value under setting [2] amounted to 0.147.
Turning to “ACAGACGAAGGAGCCGCAAAGAAGTTATTAAGGGATGAATAATTCCTCAAAATAAATATCTCTCACTTATTTAAA”, under setting [2], the “cleaved RNA product abundance” value was determined as 0.331.
In the case of “CGACATGTCCCGCTTCTTTCATTAATCCGTTAGCAACTGTTTTGCGATATACATTTACCATTTAAGAGGAGGAAT”, under setting [3], the “cleaved RNA product abundance” value was 0.637.
With “ACAGACGAAGGAGCCGCAAAGAAGTTATTAAGGGATAAATAATCCCTCAATAAAAATATCTCTCACTTATTTAAA”, the “cleaved RNA product abundance” value under setting [4] stood at 0.148.
Regarding “ACAGACGAAGGAGCCGCAAAGAAGTTATTAAAGGATGAATAATCCCTCAGTATAAATATCTCTCACTTATTTAAA”, under setting [2], the “cleaved RNA product abundance” value was found to be 0.122.
As to “CGACATGTCCCGCTTCTTTCATTAATCCGTTAGCAACTGTTTTGTTATATACATTTACCTTTTAAGAGGAGGAAT”, the “cleaved RNA product abundance” value under setting [3] was 0.453.
As to “ACAGACGAAGGAGCCGCAAATAAGTTATTAAGGGATGAATAATCCCACAATATAAATAACTCTCACTTATTTAAA”, the “cleaved RNA product abundance” value under setting [2] came to 0.22.
With “ACAGACGAAGGAGCCGCAAAGAAGTTATTAAGGGATGAATCATCCCTAAATATAAATATCTCTCACTTATTTAAA”, the “cleaved RNA product abundance” value was found to be 0.597 under setting [1] and 1 under setting [2].
Turning to “CGACATGTCCCGCTTCTTTCATTAATCCGTTATCAACTGTTTTGCTATATATATTTACCTTTTAAGAGGAGGAAT”, the “cleaved RNA product abundance” value under setting [3] was found to be 0.288.
On to “ACAGACGAAGGAGCCGCAAAGAAGTTATTAAGGGATGAATAATCTCTCAATATAAATTTCTCTCACTTATTTAAA”, for which, under setting [2], the “cleaved RNA product abundance” value was 0.708.
On to “CGACATGTCCCGCTTCTTTCATTAATCCGTTATTAACTGTTTTGCTATATACATTTACCTTTTAAGAGGAGGAAT”, for which the “cleaved RNA product abundance” value under setting [3] turned out to be 0.337.
On to “ACAGACGAAGGAGCCGCAACGAATTTATTAAGGGATGAATAATCCCTCAATATAAATATCTCTCACTTATTTAAA”, for which the “cleaved RNA product abundance” value reads like this: under setting [1], 0.738; under setting [2], 1.15.
For the sequence “ACAGACGAAGGAGCCGCAAAGAAGTTATTAAGGGATGAAGAATCCCCCAATATAAATATCTCTCACTTATTTAAA”, the “cleaved RNA product abundance” value under setting [2] was determined as 0.183.
Still for that read-out and setting: then “ACAGACGAAGGAGCCGCAAAGAAGTTATTAAGGGATGAATACTCCCACAATATAAATATCTCTCACTTATTTAAA”, with 0.139.
Same read-out and setting: then “ACAGACGAAGGAGCCGCAAAGAAGTTATTAAGGGATAAATCATCCCTCAATATAAATATCTCTCACTTATTTAAA”, with 0.818; and “ACAGACGAAGGAGCCGCAAAGAAGTAATAAAGGGATGAATAATCCCTCAATATAAATATCTCTCACTTATTTAAA”, with 0.205.
The same measure, in the same setting: then “ACAGACGAAGGAGCCGCAAAGAAGTTATTAAGGGATGATTAATCCCTCAATAGAAATATCTCTCACTTATTTAAA”, with 0.0935.
Take “ACAGACGAAGGAGCCGCAAAGAAGTTATTAAGGGATCAATAATTCCTCAATATAAATATCTCTCACTTATTTAAA”: the “cleaved RNA product abundance” value under setting [2] is 0.22.
“ACAGACGAAGGAGCCGCAAAGAAGTTATTAAGGGATAAATAATACCTCAATATAAATATCTCTCACTTATTTAAA”: the “cleaved RNA product abundance” value by setting is: under setting [1], 0.117; under setting [2], 0.0789.
For “ACAGACGAAGGAGCCGCAAAGAAGTTATTACGGGATGAATAATCACTCAATATAAATATCTCTCACTTATTTAAA”, the “cleaved RNA product abundance” value under setting [1] was 0.108.
In the case of “ACAGACGAAGGAGCCGCAAGGAAGTTATTAAGGAATGAATAATCCCTCAATATAAATATCTCTCACTTATTTAAA”, the “cleaved RNA product abundance” value under setting [2] turned out to be 0.115.
Take “ACAGACGAAGGAGCCGCAAACAAGTTATTAAGGGATGAATAATTCCTCAATATAAATATCTCTCACTTATTTAAA”: the “cleaved RNA product abundance” value under setting [2] is 0.422.
With “CGACATGTCCCGCTTCTTTCATTAATCCGTTAGTAACTGTTTTGCTACATACATTTACCTTTTAAGAGGAGGAAT”, the “cleaved RNA product abundance” value under setting [3] is 0.318.
Consider “ACAGACGAAGGAGCCGCAAAGAAGTTTTTAAGGGATGAATAATTCCTCAATATAAATATCTCTCACTTATTTAAA”, for which the “cleaved RNA product abundance” value runs as follows: under setting [1], 0.177; under setting [2], 0.195.
In the case of “ACAGACGAAGGAGCCGCAAAGAAGTTCTTAAGGGATGAATAATCCATCAATATAAATATCTCTCACTTATTTAAA”, the “cleaved RNA product abundance” value under setting [2] was 0.199.
Consider “ACAGACGAAGGAGCCGCAAAGAAGTTTTTAAGGGTTGAATAATCCCTCAATATAAATATCTCTCACTTATTTAAA”, for which the “cleaved RNA product abundance” value runs as follows: under setting [1], 0.166; under setting [2], 0.271.
In the case of “CGACATGTCCCGCTTCTTTCATTAATCCCTTAGCAACTGTTTTGCTATATACATTTAACTTTTAAGAGGAGGAAT”, the “cleaved RNA product abundance” value under setting [3] was determined as 0.237.
Consider “ACAGACGAAGGAGCCGCAAAGAAGTAATTAAGGGATGAACAATCCCTCAATATAAATATCTCTCACTTATTTAAA”, for which the “cleaved RNA product abundance” value under setting [1] was 0.181.
With “ACAGACGAAGGAGCCGCAAAGAAGTTATTATGGGATGAATAATCCCTCAATATAAATACCTCTCACTTATTTAAA”, the “cleaved RNA product abundance” value was determined as 0.348 under setting [1] and 0.44 under setting [2].
For the sequence “ACAGACGAAGGAGCCGCAAAGACGTTCTTAAGGGATGAATAATCCCTCAATATAAATATCTCTCACTTATTTAAA”, the “cleaved RNA product abundance” value under setting [2] was determined as 0.231.
Turning to “CGACATGTCCCGCTTCTTTCATTAATCCGTTAGCAACAGTTTTGCTATATACATTTACGTTTTAAGAGGAGGAAT”, the “cleaved RNA product abundance” value under setting [3] came out at 2.01.
As for “ACAGACGAAGGAGCCGCAAAGAAGTTATTCAGGTATGTATAATCCCTCAATATAAATATCTCTCACTTATTTAAA”, the “cleaved RNA product abundance” value under setting [2] worked out at 0.143.
Consider “ACAGACGAAGGAGCCGCAAAGAAGTTATTAATGGAAGAATAATCCCTCAATATAAATATCTCTCACTTATTTAAA”, for which the “cleaved RNA product abundance” value stood at 0.0884 under setting [1] and 0.114 under setting [2].
Take “ACAGACGAAGGAGCCGCAATGAAGTTATTAAGGGATGAATAATTCCTCAATATAAATATCTCTCACTTATTTAAA”: the “cleaved RNA product abundance” value worked out at 0.505 under setting [1] and 0.517 under setting [2].
As for “ACAGACGAAGGAGCCGCAAAGAAGTTATTAAGGGCTGTATAATCCCTCAATATAAATATCTCTCACTTATTTAAA”, the “cleaved RNA product abundance” value under setting [2] was 0.54.
Take “CGACATGTCCCGCTTCTTTCATTAATCCTTTAGCAAATGTTTTGCTATATACATTTACCTTTTAAGAGGAGGAAT”: the “cleaved RNA product abundance” value under setting [3] is 0.608.
On the same count and under the same terms, as for “CGACATGTCCCGCTTCTTTCATTAATTCGTTAGCAACTGTTTTGCTATATACATTTACCCTTTAAGAGGAGGAAT”, the figure is 0.564.
